No end group written: not given here. *: point of attachment. BODIPY(FL) = CC1=CC(C)=[N+]2C1=Cc1ccc(CCC(=O)*)n1[B-]2(F)F
Legend:
Assay in all cases: flow cytometry on cells
[1] = target: construct 1 cleaved at the Ala-Arg site by OmpT-AR1 (MDM2-polyArg part) (UniProt Q00987 25-125)
[2] = target: MDM2-polyArg (construct 2) (UniProt Q00987 17-125)
[3] = target: autoinhibited-substrate-MDM2-polyArg (construct 1) (UniProt Q00987 25-125)

B1: PMI peptide conjugated to the fluorescent dye BODIPY (peptide)
peptide: {BODIPY(FL)}-GTSFAEYWNLLSP
binding result [1]: binds
binding result [2]: binds
fold reduction in fluorescence against construct 2 [3]: > 10 fold
